Source: the nanobody polyreactivity screen of Harvey et al. (2022)

Assay: yeast display, Sf9 membrane polyspecificity reagent, FACS + sequencing; frameworks hold sequencing errors
Outline: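 Nanobodies came from a synthetic yeast display library in Saccharomyces cerevisiae BJ5465, induced with galactose for 36–48 hours and stained for 1 hour at 4 °C with 10% biotinylated, detergent-solubilized Sf9 membrane reagent. Cells were enriched on streptavidin microbeads and then FACS-sorted, with low and high (top ~1%) gates set on anti-HA fluorescence for expression and streptavidin fluorescence for reagent binding. Each polyreactivity label reflects the gate a clone came from. Genes were amplified by colony PCR, sequenced by MiSeq 2 × 250 and filtered by CDR length.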

Row | Sequence | polyreactivity (PSR sort gate)
1 | QVQLVESGGGLVQAGGSLRLSCAASGRIFRYYDMAWYTQAPGKEREFVAAITRSGAITYYADSVKGRFTKSRDNAKNTVYLQMNSLKPEDTAVYYCAARYWAKFGYWGQGTQVTVSS | low polyreactivity
2 | QVQLVESGGGLVQAGGSLRLSCAASGRIFRYYTMGWYRQAPGKVRELVAAITRRGGITNYADSVTGRFTISRDNAKNTVYLQMNSLKPEDTAVYYCAAKSVSQGDDYWGQGTQVTVSS | high polyreactivity
3 | QVQLVESGGGLVQAGGSLRLSCAASGRIFRYYVLGWYRQAPGKERELVATINWSGSRTYYADSVKGRFTISRDNAKNTVYLQMNSLKPEDTAVYYCAARTFNTYPRYYYWGQGTQVTVSS | high polyreactivity
4 | QVQLVESGGGLVQAGGSLRLSCAASGRIFRYYVMGWYRQAPGKERELVAAISRSGGSTRYADSVKGRFTISRDNAKNTVYLQMNSLKPEDTAVYYCAATSRSYNDYDYWGQGTQVTVSS | high polyreactivity
5 | QVQLVESGGGLVQAGGSLRLSCAASGRIFSANAMGWYRQAPGKERELVAAITRGDNTYYADSVKGRFTISRDNAKNTVYLQMNSLKPEDTAVYYCATEGYQIQYEHDYWGQGTQLTVSS | low polyreactivity
6 | QVQLVESGGGLVQAGGSLRLSCAASGRIFSDYAMGWYIQAPGKERELVAAISWGGGRTYYADSVKGRFTISRDNAKNTVYLQMNSLKPEDTAVYYCNRGTVNSWARGYWGQGTQVTVSS | high polyreactivity
7 | QVQLVESGGGLVQAGGSLRLSCAASGRIFSDYAMGWYRQAPGKERELVAAISRSGTRTYYADSVKGRFTISRDNAKNTVYLQMNSLKPEDTAVYSCAAKTPYGRAGQEEDYCGQGTQVTVSS | high polyreactivity
8 | QVQLVESGGGLVQAGGSLRLSCAASGRIFSFYAMGWYRQAPGKERELVATISKRAGSTYYADSVKGRFTISRDNAKNTVYLQMNSLKPEDTEVYYCYAYKRGYLYRYNYWGQGTQVTVSS | high polyreactivity
9 | QVQLVESGGGLVQAGGSLRLSCAASGRIFSFYTMGWYRQAPGKERELVAAITWRGGSTYYADSVKGRFTISRDNAKNTVYLQMNSLKPEDTAVYYCAAEVYGAVYDYWGQGTQVTVSS | low polyreactivity
10 | QVQLVESGGGLVQAGGSLRLSCAASGRIFSGNAMGWYRQAPGKERELVARISRSGSNTYYADSVKGRFTISRDNAKNTVYLQMKSLKPEDTAVYYCAAKSTYWPYDRTYNSWGQVTQVTVSS | high polyreactivity
11 | QVQLVESGGGLVQAGGSLRLSCAASGRIFSGYAMGWDRQAPGKERELVAAITSRSGSTYYADSVKGRFTISRDNAKNTVYLQMNSLKPEDTAVYYCAKRLYKPGNVFYSVDQSDYWGQGTQVTVSS | low polyreactivity
12 | QVQLVESGGGLVQAGGSLRLSCAASGRIFSGYAMGWYRQAPGKEREFVAAITSSGRTKYADSVKGRFTISRDNAKNTVYLQMNSLKPEDTAVYYCAARPSQWNYDYRRVYYWGQGTQVTVSS | high polyreactivity
13 | QVQLVESGGGLVQAGGSLRLSCAASGRIFSGYAMGWYRQAPGKERELVAAITSGASTNYADSVKGRFTISRDNAKNTVYLQMNSLKPEDTAVYYCAATYHTWRGQYLWYDYWGQGTQVTVSW | low polyreactivity
14 | QVQLVESGGGLVQAGGSLRLSCAASGRIFSGYAMGWYRQAPGKERELVAAITSVGSTNYADSVKGRFTISRDNAKNNVYLQMNSLKPEDTAVYYCAARSQSYYRYRSYGYWGQGTQVTVSS | high polyreactivity
15 | QVQLVESGGGLVQAGGSLRLSCAASGRIFSGYAMGWYRQAPGKERELVAAITSVGSTNYADSVKGRFTISRDNAKYTVYLQMNSLKPEDTAVYYCAKDTGQGYYWGQGTQVTVSS | high polyreactivity
16 | QVQLVESGGGLVQAGGSLRLSCAASGRIFSGYAMGWYRQAPGKEWELVAAITWSGGSTYADSVKGRFTISRDNAKHTVYLQMNTLKPEDTAVYYCNTSARYNGSYKYDYWGQGTQVTVSS | low polyreactivity
17 | QVQLVESGGGLVQAGGSLRLSCAASGRIFSHYAMAWYRQAPGKERELVAAITSDRSTNYADSVKGRFTISRDNANNTVYLQMNSLKPDDTAVYYCAKYVHIPYYYYLFGSYDYWGQGTQVTVSS | low polyreactivity
18 | QVQLVESGGGLVQAGGSLRLSCAASGRIFSHYAMGWYRQAPGKERELVAAINRSGGSTYYADSVKGRFTISRDNAKNTVYLQMNSLKPEDTAVYYCAATSLRRYGYNYWGQGTQVTVSS | high polyreactivity
19 | QVQLVESGGGLVQAGGSLRLSCAASGRIFSHYAMGWYRQAPGKERELVAAITWSGGRTYYADSVKGRFTISRDNAKNTVYLQMNSLKPEDTAVYYCNAYPSSSLFDYWGQGTQVTVSS | low polyreactivity
20 | QVQLVESGGGLVQAGGSLRLSCAASGRIFSKYAMGWNRQAPGKERELVAAITSSTKYADSVKGRFTISRDNAKNTVYLQMNSLKPEDTAVYYCNAEFGWHTYYGADFKMDYWGQGTQVTVSS | high polyreactivity
21 | QVQLVESGGGLVQAGGSLRLSCAASGRIFSKYAMGWYRQAPGKEMELDAAITRSGGSTYYADSVKGRFTISRDNAKNTVYLQMNSLKPEDTAVYYCNAGTYSTSVPYRYNYWGQGTQVTVSS | high polyreactivity
22 | QVQLVESGGGLVQAGGSLRLSCAASGRIFSLNAMGWYRQAPGKERELVAGIRKRGGSTYYADSVKGRFTISRDNAKNTVYLQMNSLKPEDTAVYYCAARFYYGPGGYTMYYWGQGTQVTVSS | high polyreactivity

Row | Sequence | polyreactivity (PSR sort gate)
23 | QVQLVESGGGLVQAGGSLRLSCAASGRIFSNNVMGWNRQGPGKERELVATISTDGRTNYADSVKGRFTISRDNAKNTVYLQMNSQKPEDTAVSYCAATGVTLLLSSKSDYWGQGTQVTVSS | low polyreactivity
24 | QVQLVESGGGLVQAGGSLRLSCAASGRIFSNYAMGWYRQAPGKERELVAAISYSGDSTYYADSVKGRFTISRDNAKNTVYLQMNSLKPEDTAVYYCAAVRSYRRYPQSSDLYYYWGQGTQVTVSS | high polyreactivity
25 | QVQLVESGGGLVQAGGSLRLSCAASGRIFSPNAMGWYRQAPGKERELVAAISWRGRTYYADSVKGRFTISRDNAKNTVYLQMNSLKPEDTAVYYCNAPYKYVRGDYWGQGTQVTVSS | high polyreactivity
26 | QVQLVESGGGLVQAGGSLRLSCAASGRIFSPNAMGWYRQAPGKERELVAAITRGGSTNYADSVKGRFTISRDNAKNTVYLQMNSLKPEDTAVYYCAAQLAKTISGRGYNSWGQGTQVTVSS | low polyreactivity
27 | QVQLVESGGGLVQAGGSLRLSCAASGRIFSPYAMGWYRQAPGKERELVAAISSSGTYYADSVKGRFTISRDNAKNTVYLQMNSLKPEDTAVYYCNARRYWGRYDYWGQGTQVTVSS | high polyreactivity
28 | QVQLVESGGGLVQAGGSLRLSCAASGRIFSPYAMGWYRQAPGKERELVAAITSSGGSSYYADSVKGRFTISRDYAKNTVYLQMNSLKPEDTAVYYCNARRGRYTPSVNYWGQGTQVTVSS | high polyreactivity
29 | QVQLVESGGGLVQAGGSLRLSCAASGRIFSPYAMGWYRQAPGKERELVATITSGGSTNYADSVKGRFTISRDNAKNTVYLQKNSLKPEDTAVYYCNAVYYSNPYYYSRVWQYYYWGQGTQVTVSS | low polyreactivity
30 | QVQLVESGGGLVQAGGSLRLSCAASGRIFSRNAMGWSRQAPGKERELVAAISRSGGTTYYADSVKGRFTISRDNAKNTVYLQMISLKPEDTAVYYCAAYFWFYVQYEYWGQGTQVTVSS | high polyreactivity
31 | QVQLVESGGGLVQAGGSLRLSCAASGRIFSRNAMGWYRQAPGKERELVAAISGSGGSTYYADSVKGRFTISRDNAKNTVYLQMNSLKPEDTAVYYCNKFGYHREYDYWGQGTQVTVSS | low polyreactivity
32 | QVQLVESGGGLVQAGGSLRLSCAASGRIFSRNAMGWYRQAPGKERELVAAISRTGGSTYYADSVKGRFTISRDNAKNTVYLQMNSLKPEDTAVYYCADAYYRKSSYGQIVEYDYWGQGTQVTVSS | high polyreactivity
33 | QVQLVESGGGLVQAGGSLRLSCAASGRIFSRNAMGWYRQAPGKERELVAGISARGGRTYYADSVKGRFTNSRDNAKNTVYLQMNSLKPEDTAVYYCAASFSAIRGGVRVTIDYYWGQGTQVTVSS | high polyreactivity
34 | QVQLVESGGGLVQAGGSLRLSCAASGRIFSRNAMGWYRQAPGKEWELVARITVTVGSTYYADSVKGRFTISRDNAKNTVYLQMNSLKPEDTAVYYCAADAGYRYDCPYNYYYWGQGTQVTVSS | low polyreactivity
35 | QVQLVESGGGLVQAGGSLRLSCAASGRIFSRYAKGWYRQAPGKERELVAAINKSGGSTYYADSVKGRFTISRDNAKNTVYLQMNSLKPEDTAVYYCNAVYYWYKGDYWGQGTQVTVSS | high polyreactivity
36 | QVQLVESGGGLVQAGGSLRLSCAASGRIFSRYAMGWYLQAPGKERELVAAISWSGGSTYYADSVKGRFTISRDNAKNTVYLQMNSLKPEDTAVYYCAAKRQYTEYNYWGQGTQVTVSS | high polyreactivity
37 | QVQLVESGGGLVQAGGSLRLSCAASGRIFSRYAMGWYRQAPGKERELVAAISKSGGRTYYADSVKGRFTISRDNAKNTVYLQKNSLKPEDTAVYYCATVIFRSSGYYYWGQGTQVTVSS | high polyreactivity
38 | QVQLVESGGGLVQAGGSLRLSCAASGRIFSRYAMGWYRQAPGKERELVAAITRRGGSTYYADSVKGRFTISRDNAKNTVYLQMNSLKPEDTAVYYCAADGQWPWWLLRYDYWGQGTQVTVSS | high polyreactivity
39 | QVQLVESGGGLVQAGGSLRLSCAASGRIFSRYTMGGYRQAPGKERELVAANSYRGGSTYYADSVKGRFTISRDNAKNTVYLQMNSLKPEDTAVYYCAARVQAIYRYDYWGQGTQVTVSS | high polyreactivity
40 | QVQLVESGGGLVQAGGSLRLSCAASGRIFSRYTMGWYRQAPGKERELVATIRISGGNTYYADSVKGRFTISRDNAKNTVYLQMNSLKPDDTAVYYCAARYGWVQNTYTMYFWGQGTQVTVSS | high polyreactivity
41 | QVQLVESGGGLVQAGGSLRLSCAASGRIFSSYAMGWYRQAPWKERELVAAISGSGGRTYYADSVKGRFTISRDNAKNTVYLQMNSLKPEDTAVYYCNARRRSPYSTGVAYDYWGQGTQVTVSS | high polyreactivity
42 | QVQLVESGGGLVQAGGSLRLSCAASGRIFSSYTMGWYRQAPGKERELVAAISWRGGSTYYADSVKGRFTISRDNAKNTVYLQMNSLKPEDTAVYYCAADSRSHPGDYWGQGTQVTVSS | low polyreactivity
43 | QVQLVESGGGLVQAGGSLRLSCAASGRIFSTYAMGWYRQAPGKERELVAAINKIGGSTYYADSVKGRFTISRDNAKNTVYLQMNSLIPEDTAVYYCAADAPYYPVRRYYYWGQGTQVTVSS | low polyreactivity
